The values below come from patent US20170253670A1 (Hoffmann-La Roche, published 2017).

“And” between values parts separate entries of the source, which are not always exact repeats. Equal values may be shown once.

For assay [1], the target named is T1, recombinant human BCMA Fc(kih) (human, UniProt Q02223 4-53, biotin on avi-tag where coupled to SA chip ; biotin on the avi-tag of the Fc-knob chain where coupled to the SA chip (tag not in the letters)).
T1 construct: also called huBCMA Fc(kih); huBCMA; not shown: human IgG1 hinge-Fc(knob)-avi fused to the ECD, and the unfused Fc(hole) chain
T1 chain: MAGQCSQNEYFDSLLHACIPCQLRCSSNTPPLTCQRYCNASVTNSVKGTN
The assay is described as follows: SPR Biacore, 1:1 Langmuir fit, as in Example 41. As for the experimental part:
The affinity of the interaction between anti-BCMA antibodies or BCMA-TCB CLC antibodies and recombinant human BCMA Fc(kih) was also determined. Anti-human Fab antibody (GE Healthcare) was directly coupled on a CM5 chip at pH 5.0 using the standard amine coupling kit (Biacore, Freiburg/Germany). The immobilization level was about 6500 RU. […] The dissociation was monitored for 120 or 400 seconds. Bulk refractive index differences were corrected for by subtracting the response obtained on reference flow cell. […] Kinetic constants were derived using the Biacore T200 Evaluation Software (v 1.0, Biacore AB, Uppsala/Sweden), to fit rate equations for 1:1 Langmuir binding by numerical integration (Table 41).
The anti-BCMA antibody comprising two heavy chains of 83A10 and two common light chains were produced using the general techniques for generation of bivalent IgG antibodies as described in the Material and general methods section.

For assay [2], the target named is T1, recombinant human BCMA Fc(kih). The assay is described as follows: SPR Biacore, binder captured via anti-Fab, BCMA-Fc analyte.
Assay [3] has as its target T2, recombinant murine BCMA Fc(kih) (murine, UniProt O88472 2-49, biotinylated at the avi-tag of the Fc knob chain (not in the letters)).
T2 construct: also called muBCMA Fc(kih); not shown: human IgG1 hinge-Fc(knob)-avi and the unfused Fc(hole) chain
T2 chain: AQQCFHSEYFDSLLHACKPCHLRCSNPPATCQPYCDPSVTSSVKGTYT
The assay is described as above.

Assay [4] has as its target T3, human BCMA on myeloma cells (H929, U266) (human, UniProt Q02223 1-184).
T3 sequence (looked up): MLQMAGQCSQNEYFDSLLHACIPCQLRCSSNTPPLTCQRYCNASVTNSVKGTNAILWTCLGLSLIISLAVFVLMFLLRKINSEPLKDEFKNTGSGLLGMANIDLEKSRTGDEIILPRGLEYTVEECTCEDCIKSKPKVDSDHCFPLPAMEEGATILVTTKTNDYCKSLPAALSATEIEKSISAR
In words: cell-based or functional assay.

Assay [5] concerns the target T4, human FolR1 on cells (HeLa, SKOV3, HT-29, transfected HEK) (human, UniProt P15328 25-234).
T4 construct: whole, on cells
The assay is described as follows: flow cytometry on HeLa cells, fluorescently labeled anti-human secondary antibody. The protocol:
FIGS. 2A-C depict graphs summarizing Binding of FoLR1 IgG binders to HeLa cells. Binding of newly generated FolR1 binders to FolR1 expressed on HeLa cells were determined by flow cytometry. Bound antibodies were detected with a fluorescently labeled anti-human secondary antibody.
The identified binders were converted into a human IgG1 format and binding to FolR1 high expressing HeLa cells was addressed. […] In a next step the selected clones were tested for specificity to human FolR1 by excluding binding to the closely related human FolR2. HEK cells were transiently transfected with either human FolR1 or human FolR2 to address specificity. […] In parallel cross-reactivity of the FolR1 clones to cyno FolR1 was addressed by performing binding studies to HEK cells transiently transfected with cyno FolR1. […] These FolR1 TCBs were then used to compare induction of internalization after binding to FolR1 on HeLa cells.

In assay [6] the target is T5, MUC1 SEA-avi-His, biotinylated (human, biotin on avi tag).
T5 construct: E. coli derived; also called MUC1 antigen; SEA domain of human MUC1
T5 chain: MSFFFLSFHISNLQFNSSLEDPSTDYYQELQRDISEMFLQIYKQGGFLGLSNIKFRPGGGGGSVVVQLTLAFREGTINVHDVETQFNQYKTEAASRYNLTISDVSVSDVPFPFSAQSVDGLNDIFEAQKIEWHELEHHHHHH
In words: SPR (ProteOn XPR36), biotinylated MUC1 on NLC chip, Fab as analyte, 1:1 Langmuir fit. The protocol: Immobilization of recombinant antigens (ligand): Antigens were diluted with PBST (10 mM phosphate, 150 mM sodium chloride pH 7.4, 0.005% Tween 20) to 10 μg/ml, then injected at 30 μl/minute at varying contact times, to achieve immobilization levels of about 200 response units (RU) in vertical orientation. […] Buffer (PBST) was injected along the sixth channel to provide an “in-line” blank for referencing. Association rate constants (kₒₙ) and dissociation rate constants (koff) were calculated using a simple one-to-one Langmuir binding model in ProteOn Manager v3.1 software by simultaneously fitting the association and dissociation sensorgrams. The equilibrium dissociation constant (KD) was calculated as the ratio koff/kₒₙ. Regeneration was performed in horizontal orientation using 10 mM Glycine, pH 1.5 at a flow rate of 100 ul/min for a contact time of 30 s.

T4 sequence (P15328 25-234): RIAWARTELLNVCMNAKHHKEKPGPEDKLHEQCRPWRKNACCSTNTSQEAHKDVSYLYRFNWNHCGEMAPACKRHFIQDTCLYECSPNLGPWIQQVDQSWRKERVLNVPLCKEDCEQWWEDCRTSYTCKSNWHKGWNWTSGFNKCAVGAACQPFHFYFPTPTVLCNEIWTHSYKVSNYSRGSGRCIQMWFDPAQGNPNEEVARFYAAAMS

B1: 83A10-CLC anti-BCMA IgG (antibody, V domains shown)
VH: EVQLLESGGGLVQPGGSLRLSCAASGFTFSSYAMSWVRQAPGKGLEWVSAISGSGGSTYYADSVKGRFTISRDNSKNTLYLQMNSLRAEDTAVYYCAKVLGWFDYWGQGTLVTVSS
VL: QAVVTQEPSLTVSPGGTVTLTCGSSTGAVTTSNYANWVQEKPGQAFRGLIGGTNKRAPGTPARFSGSLLGGKAALTLSGAQPEDEAEYYCALWYSNLWVFGGGTKLTVLG
notes: two heavy chains of 83A10 and two common light chains
B1: in assay [1], the dissociation constant Kd was 24.3 nM, the koff worked out at 0.00213 s⁻¹ and the on-rate (kon) stood at 87800 M⁻¹ s⁻¹.

B2: pSCHLI333-TCB CLC (bispecific antibody)
heavy 1: not shown
heavy 2: QVQLVQSGAEVKKPGASVKVSCKASGYMFSSFGMSWVRQAPGQGLEWMGWIYPVGQGTWYAQKFQGRVTMTRDTSTSTVYMELSSLRSEDTAVYYCARVSYPPSHFDYWGQGTLVTVSSASTKGPSVFPLAPSSKSTSGGTAALGCLVKDYFPEPVTVSWNSGALTSGVHTFPAVLQSSGLYSLSSVVTVPSSSLGTQTYICNVNHKPSNTKVDKKVEPKSCDKTHTCPPCPAPEAAGGPSVFLFPPKPKDTLMISRTPEVTCVVVDVSHEDPEVKFNWYVDGVEVHNAKTKPREEQYNSTYRVVSVLTVLHQDWLNGKEYKCKVSNKALGAPIEKTISKAKGQPREPQVCTLPPSRDELTKNQVSLSCAVKGFYPSDIAVEWESNGQPENNYKTTPPVLDSDGSFFLVSKLTVDKSRWQQGNVFSCSVMHEALHNHYTQKSLSLSPGK
light: QAVVTQEPSLTVSPGGTVTLTCGSSTGAVTTSNYANWVQEKPGQAFRGLIGGTNKRAPGTPARFSGSLLGGKAALTLSGAQPEDEAEYYCALWYSNLWVFGGGTKLTVLGQPKAAPSVTLFPPSSEELQANKATLVCLISDFYPGAVTVAWKADSSPVKAGVETTTPSKQSNNKYAASSYLSLTPEQWKSHRSYSCQVTHEGSTVEKTVAPTECS
notes: also called pSCHLI333 BCMAxCD3 TCB
Consider B2, for which the equilibrium dissociation constant (Kd) in assay [2] was found to be 164 nM; in assay [3] it was 7.19 µM. In addition, the “EC50 redirected T-cell killing, H929” value in assay [4] was 980 pM and 0.19 µg/ml.

B3: pSCHLI373-TCB CLC (bispecific antibody)
heavy 1: not shown
heavy 2: EVQLVESGGGLVKPGGSLRLSCAASGFSFSNSWMNWVRQAPGKGLEWVGTIRQKTYGGTTDYAAPVKGRFTISRDDSKNTLYLQMNSLKTEDTAVYYCTTGGLFGYWDYWGQGTLVTVSSASTKGPSVFPLAPSSKSTSGGTAALGCLVKDYFPEPVTVSWNSGALTSGVHTFPAVLQSSGLYSLSSVVTVPSSSLGTQTYICNVNHKPSNTKVDKKVEPKSCDKTHTCPPCPAPEAAGGPSVFLFPPKPKDTLMISRTPEVTCVVVDVSHEDPEVKFNWYVDGVEVHNAKTKPREEQYNSTYRVVSVLTVLHQDWLNGKEYKCKVSNKALGAPIEKTISKAKGQPREPQVCTLPPSRDELTKNQVSLSCAVKGFYPSDIAVEWESNGQPENNYKTTPPVLDSDGSFFLVSKLTVDKSRWQQGNVFSCSVMHEALHNHYTQKSLSLSPGK
light: QAVVTQEPSLTVSPGGTVTLTCGSSTGAVTTSNYANWVQEKPGQAFRGLIGGTNKRAPGTPARFSGSLLGGKAALTLSGAQPEDEAEYYCALWYSNLWVFGGGTKLTVLGQPKAAPSVTLFPPSSEELQANKATLVCLISDFYPGAVTVAWKADSSPVKAGVETTTPSKQSNNKYAASSYLSLTPEQWKSHRSYSCQVTHEGSTVEKTVAPTECS
B3: the “EC50 redirected T-cell killing, H929” value in assay [4] is 1590 pM and 0.31 µg/ml.

B4: Mov19 IgG (antibody, V domains shown)
VH: QVQLQQSGAELVKPGASVKISCKASGYSFTGYFMNWVKQSHGKSLEWIGRIHPYDGDTFYNQNFKDKATLTVDKSSNTAHMELLSLTSEDFAVYYCTRYDGSRAMDYWGQGTTVTVSS
VL: DIELTQSPASLAVSLGQRAIISCKASQSVSFAGTSLMHWYHQKPGQQPKLLIYRASNLEAGVPTRFSGSGSKTDFTLNIHPVEEEDAATYYCQQSREYPYTFGGGTKLEIK
For the molecule B4, the half-maximal effective concentration (EC50 (read off the curve)) in assay [5] is approximately 1 µg/mL.

B5: 19E5 IgG (antibody, V domains shown)
VH: QVQLVQSGAEVKKPGASVKVSCKASGYTFTSYYMHWVRQAPGQGLEWMGIINPSGGSTSYAQKFQGRVTMTRDTSTSTVYMELSSLRSEDTAVYYCARGEWRRYTSFDYWGQGTLVTVSS
VL: QAVVTQEPSLTVSPGGTVTLTCGSSTGAVTTSNYANWVQEKPGQAFRGLIGGTNKRAPGTPARFSGSLLGGKAALTLSGAQPEDEAEYYCALWYSNLWVFGGGTKLTVL
notes: human IgG1
Consider B5, for which, in assay [5], the “EC50 (read off the curve)” value was approximately 2 µg/mL.

B6: 106D2 Fab (Fab, V domains shown)
VH: EVQLLESGGGLVQPGGSLRLSCAASGFTFRVYAMSWVRQAPGKGLEWVSGISETGSYTYYADSVKGRFTISRDNSKNTLYLQMNSLRAEDTAVYYCARYPYGFDYWGQGTLVTVSS
VL: QAVVTQEPSLTVSPGGTVTLTCGSSTGAVTTSNYANWVQEKPGQAFRGLIGGTNKRAPGTPARFSGSLLGGKAALTLSGAQPEDEAEYYCALWYSNLWVFGGGTKLTVL
notes: bacterial Fab
In the case of B6, in assay [6], binding was put at a Kd of 30 nM, the dissociation rate constant (koff) was determined as 0.000295 s⁻¹ and the kon was 9800 M⁻¹ s⁻¹.

B7: 19A4 IgG (antibody, V domains shown)
VH: QVQLVQSGAEVKKPGASVKVSCKASGYTFTSYYMHWVRQAPGQGLEWMGIINPSGGSTSYAQKFQGRVTMTRDTSTSTVYMELSSLRSEDTAVYYCARGGWIRWEHFDYWGQGTLVTVSS
VL: QAVVTQEPSLTVSPGGTVTLTCGSSTGAVTTSNYANWVQEKPGQAFRGLIGGTNKRAPGTPARFSGSLLGGKAALTLSGAQPEDEAEYYCALWYSNLWVFGGGTKLTVL
notes: human IgG1
For the molecule B7, the “EC50 (read off the curve)” value in assay [5] is approximately 3 µg/mL.

B8: 58D6 Fab (Fab, V domains shown)
VH: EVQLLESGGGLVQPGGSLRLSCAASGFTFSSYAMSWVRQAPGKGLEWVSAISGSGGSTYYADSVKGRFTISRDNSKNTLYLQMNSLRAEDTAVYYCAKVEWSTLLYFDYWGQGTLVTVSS
VL: QAVVTQEPSLTVSPGGTVTLTCGSSTGAVTTSNYANWVQEKPGQAFRGLIGGTNKRAPGTPARFSGSLLGGKAALTLSGAQPEDEAEYYCALWYSNLWVFGGGTKLTVL
notes: bacterial Fab
In assay [6], B8 came in with a Kd of 23.5 nM, a koff of 0.000798 s⁻¹ and an on-rate constant (kon) of 34000 M⁻¹ s⁻¹.

B9: 20G6 IgG (antibody, V domains shown)
VH: QVQLVQSGAEVKKPGASVKVSCKASGYTFTSYYMHWVRQAPGQGLEWMGIINPSGGSTSYAQKFQGRVTMTRDTSTSTVYMELSSLRSEDTAVYYCARGEWIRYYHFDYWGQGTLVTVSS
VL: QAVVTQEPSLTVSPGGTVTLTCGSSTGAVTTSNYANWVQEKPGQAFRGLIGGTNKRAPGTPARFSGSLLGGKAALTLSGAQPEDEAEYYCALWYSNLWVFGGGTKLTVL
notes: human IgG1
In the case of B9, the binding result in assay [5] is reported as “binds”.

B10: 110A5 Fab (Fab, V domains shown)
VH: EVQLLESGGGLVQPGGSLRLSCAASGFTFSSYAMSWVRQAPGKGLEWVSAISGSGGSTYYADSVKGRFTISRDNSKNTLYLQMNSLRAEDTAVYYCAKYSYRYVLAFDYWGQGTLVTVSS
VL: QAVVTQEPSLTVSPGGTVTLTCGSSTGAVTTSNYANWVQEKPGQAFRGLIGGTNKRAPGTPARFSGSLLGGKAALTLSGAQPEDEAEYYCALWYSNLWVFGGGTKLTVL
notes: bacterial Fab
Regarding B10, in assay [6], the affinity, expressed as Kd, was 134 nM; the off-rate (koff) came out at 0.00164 s⁻¹; the kon is 12200 M⁻¹ s⁻¹.
